Experimental data: patent US20060257938A1, “Method of screening for drugs that block ligand binding to a lipid binding protein” (priority 2005, published 2006)
Residue numbers refer to the chain shown, from its start. Where “and” joins values, the source holds several entries; their conditions need not be identical. Identical values can stand only once.

B1: 106N1, 72A (protein, listed as Rattus norvegicus)
chain: AFDGTWKVDRNENYEKFMEKMGINVVKRKLGAHDNLKLTITQEGNKFTVKESSNFRNIDVVFELGVDFAYSAADGTELTGTWTMEGNKLVGKFKRVDNGKELIAVNEISGNELIQTYTYEGVEAKRIFKKE
modifications: PEPTIDE (1)...(131) wild-type rat intestinal fatty acid binding protein
B2: 115F1, 72A (protein, listed as Rattus norvegicus)
chain: B1 chain with N106R, Q115F
modifications: PEPTIDE (1)...(131) wild-type rat intestinal fatty acid binding protein
B3: 102A, 72A (protein, listed as Rattus norvegicus)
chain: B1 chain with L102A, N106R
modifications: PEPTIDE (1)...(131) wild-type rat intestinal fatty acid binding protein
B4: 113M, 72A (protein, listed as Rattus norvegicus)
chain: B1 chain with N106R, L113M
modifications: PEPTIDE (1)...(131) wild-type rat intestinal fatty acid binding protein
B5: 115E1, 72A (protein, listed as Rattus norvegicus)
chain: B1 chain with N106R, Q115E
modifications: PEPTIDE (1)...(131) wild-type rat intestinal fatty acid binding protein
B6: 106S2, 72A (protein, listed as Rattus norvegicus)
chain: B1 chain with N106S
modifications: PEPTIDE (1)...(131) wild-type rat intestinal fatty acid binding protein
B7: 106Q, 72A (protein, listed as Rattus norvegicus)
chain: B1 chain with N106Q
modifications: PEPTIDE (1)...(131) wild-type rat intestinal fatty acid binding protein
B8: 106W, 72A (protein, listed as Rattus norvegicus)
chain: B1 chain with N106W
modifications: PEPTIDE (1)...(131) wild-type rat intestinal fatty acid binding protein
B9: 115K3, 72A (protein, listed as Rattus norvegicus)
chain: B1 chain with N106R, Q115K
modifications: PEPTIDE (1)...(131) wild-type rat intestinal fatty acid binding protein
B10: 115A1, 72A (protein, listed as Rattus norvegicus)
chain: B1 chain with N106R, Q115A
modifications: PEPTIDE (1)...(131) wild-type rat intestinal fatty acid binding protein
B11: 115D1, 72A (protein, listed as Rattus norvegicus)
chain: B1 chain with N106R, Q115D
modifications: PEPTIDE (1)...(131) wild-type rat intestinal fatty acid binding protein
B12: 115H1, 72A (protein, listed as Rattus norvegicus)
chain: B1 chain with N106R, Q115H
modifications: PEPTIDE (1)...(131) wild-type rat intestinal fatty acid binding protein
B13: 115I3, 72A (protein, listed as Rattus norvegicus)
chain: B1 chain with N106R, Q115I
modifications: PEPTIDE (1)...(131) wild-type rat intestinal fatty acid binding protein
B14: 106V1, 72A (protein, listed as Rattus norvegicus)
chain: B1 chain with N106V
modifications: PEPTIDE (1)...(131) wild-type rat intestinal fatty acid binding protein
B15: 106T2, 72A (protein, listed as Rattus norvegicus)
chain: B1 chain with N106T
modifications: PEPTIDE (1)...(131) wild-type rat intestinal fatty acid binding protein
B16: 115L3, 72A (protein, listed as Rattus norvegicus)
chain: B1 chain with N106R, Q115L
modifications: PEPTIDE (1)...(131) wild-type rat intestinal fatty acid binding protein
B17: 106Y1, 72A (protein, listed as Rattus norvegicus)
chain: B1 chain with N106Y
modifications: PEPTIDE (1)...(131) wild-type rat intestinal fatty acid binding protein

Test: Probe fluorescence ratio response to palmitic acid relative to ADIFAB2
Format: binding
Settings: response relative to ADIFAB2
Summary of the method: (§1)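 Each fatty acid's response was expressed relative to ADIFAB2, the rI-FABP-L72A probe, as ΔR/ΔRreference. ΔR is the change in the background-corrected two-wavelength intensity ratio R=Fλ1/Fλ2 from its analyte-free baseline R0. Emission was read near about 420-480 nm for unbound and about 495-580 nm for FFA-bound probe.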

Row | Molecule | DR/DR PA
1 | B1 | 0.15
2 | B2 | 0.77
3 | B3 | 0.20
4 | B4 | 1.19
5 | B5 | 0.08
6 | B6 | 0.15
7 | B7 | 0.18
8 | B8 | 0.41 and 0.407
9 | B9 | 1.18
10 | B10 | 1.11
11 | B11 | 1.14
12 | B12 | 0.51
13 | B13 | 0.84
14 | B14 | 0.32
15 | B15 | 0.23
16 | B16 | 1.15
17 | B17 | 0.27

Test: Probe fluorescence ratio response to linolenic acid relative to ADIFAB2
Format: binding
Settings: response relative to ADIFAB2
Summary of the method: as §1

Row | Molecule | DR/DR LNA
18 | B1 | 0.44
19 | B2 | 1.49
20 | B3 | 0.44
21 | B4 | 1.38
22 | B5 | 0.10
23 | B6 | 0.40
24 | B7 | 0.38
25 | B8 | 1.03
26 | B9 | 1.32
27 | B10 | 1.26
28 | B11 | 1.20
29 | B12 | 0.70
30 | B13 | 0.80
31 | B14 | 0.82
32 | B15 | 0.58
33 | B16 | 1.29
34 | B17 | 0.60

Test: Probe fluorescence ratio response to oleic acid relative to ADIFAB2
Format: binding
Settings: response relative to ADIFAB2
Summary of the method: as §1

Row | Molecule | DR/DR OA
35 | B1 | 0.50
36 | B2 | 1.41
37 | B3 | 0.52
38 | B4 | 1.42
39 | B5 | 0.10
40 | B6 | 0.48
41 | B7 | 0.39
42 | B8 | 0.99 and 0.991
43 | B9 | 1.25
44 | B10 | 1.20
45 | B11 | 1.21
46 | B12 | 0.68
47 | B13 | 0.88
48 | B14 | 0.84
49 | B15 | 0.53
50 | B16 | 1.25
51 | B17 | 0.60

Test: Probe fluorescence ratio response to linoleic acid relative to ADIFAB2
Format: binding
Settings: response relative to ADIFAB2
Summary of the method: as §1

Row | Molecule | DR/DR LA
52 | B1 | 0.45
53 | B2 | 1.46
54 | B3 | 0.35
55 | B4 | 1.46
56 | B5 | 0.15
57 | B6 | 0.36
58 | B7 | 0.36
59 | B8 | 1.04 and 1.042
60 | B9 | 1.23
61 | B10 | 1.22
62 | B11 | 1.19
63 | B12 | 0.74
64 | B13 | 0.81
65 | B14 | 0.82
66 | B15 | 0.47
67 | B16 | 1.24
68 | B17 | 0.61

Test: Probe fluorescence ratio response to arachidonic acid relative to ADIFAB2
Format: binding
Settings: arachidonic acid; response relative to ADIFAB2
Summary of the method: as §1

Row | Molecule | DR/DR AA
69 | B1 | 0.38
70 | B2 | 1.36
71 | B3 | 0.45
72 | B4 | 1.33
73 | B5 | 0.12
74 | B6 | 0.32
75 | B7 | 0.37
76 | B8 | 1.11 and 1.106
77 | B9 | 1.26
78 | B10 | 1.17
79 | B11 | 1.17
80 | B12 | 0.89
81 | B13 | 0.87
82 | B14 | 0.61
83 | B15 | 0.43
84 | B16 | 1.26
85 | B17 | 0.57
